Experimental data taken from patent publication US20160108097A1 (UNITED STATES OF AMERICA AS REPRESENTED BY THE SECRETARY …, published 2016).

B1: 4mGRFT (4mG) (mGRFT-GlyThrGly-mGRFT-GlyThrGly-mGRFT-GlyThrGly-mGRFT) (designed binder)
chain: SSTHRKFGGSGGSPFSGSGLSSIAVRSGSYLDAIIIDGVHHGGSGGNLSPTFTFGSGEYISNMTIRSGDYIDNISFETNMGRRFGPYGGSGGSANTLSNVKVIQINGSAGDYLDSLDIYYEQYGTGSSTHRKFGGSGGSPFSGSGLSSIAVRSGSYLDAIIIDGVHHGGSGGNLSPTFTFGSGEYISNMTIRSGDYIDNISFETNMGRRFGPYGGSGGSANTLSNVKVIQINGSAGDYLDSLDIYYEQYGTGSSTHRKFGGSGGSPFSGSGLSSIAVRSGSYLDAIIIDGVHHGGSGGNLSPTFTFGSGEYISNMTIRSGDYIDNISFETNMGRRFGPYGGSGGSANTLSNVKVIQINGSAGDYLDSLDIYYEQYGTGSSTHRKFGGSGGSPFSGSGLSSIAVRSGSYLDAIIIDGVHHGGSGGNLSPTFTFGSGEYISNMTIRSGDYIDNISFETNMGRRFGPYGGSGGSANTLSNVKVIQINGSAGDYLDSLDIYYEQY
B2: 2mGRFT (2mG) (mGRFT-GlyThrGly-mGRFT) (designed binder)
chain: SSTHRKFGGSGGSPFSGSGLSSIAVRSGSYLDAIIIDGVHHGGSGGNLSPTFTFGSGEYISNMTIRSGDYIDNISFETNMGRRFGPYGGSGGSANTLSNVKVIQINGSAGDYLDSLDIYYEQYGTGSSTHRKFGGSGGSPFSGSGLSSIAVRSGSYLDAIIIDGVHHGGSGGNLSPTFTFGSGEYISNMTIRSGDYIDNISFETNMGRRFGPYGGSGGSANTLSNVKVIQINGSAGDYLDSLDIYYEQY
B3: monomeric griffithsin mGRFT (1GS-S, PDB ID 3LL2) (designed binder)
chain: SSTHRKFGGSGGSPFSGSGLSSIAVRSGSYLDAIIIDGVHHGGSGGNLSPTFTFGSGEYISNMTIRSGDYIDNISFETNMGRRFGPYGGSGGSANTLSNVKVIQINGSAGDYLDSLDIYYEQY
notes: also called IGS-S; GRFT monomer
B4: 2mGRFT^long (2mG3) (mGRFT-GlyThrGlyGlyThrGlyGlyThrGly-mGRFT) (designed binder)
chain: SSTHRKFGGSGGSPFSGSGLSSIAVRSGSYLDAIIIDGVHHGGSGGNLSPTFTFGSGEYISNMTIRSGDYIDNISFETNMGRRFGPYGGSGGSANTLSNVKVIQINGSAGDYLDSLDIYYEQYGTGGTGGTGSSTHRKFGGSGGSPFSGSGLSSIAVRSGSYLDAIIIDGVHHGGSGGNLSPTFTFGSGEYISNMTIRSGDYIDNISFETNMGRRFGPYGGSGGSANTLSNVKVIQINGSAGDYLDSLDIYYEQY
notes: also called 2mGRFT3; 2mrG3
B5: 3mGRFT (3mG) (mGRFT-GlyThrGly-mGRFT-GlyThrGly-mGRFT) (designed binder)
chain: SSTHRKFGGSGGSPFSGSGLSSIAVRSGSYLDAIIIDGVHHGGSGGNLSPTFTFGSGEYISNMTIRSGDYIDNISFETNMGRRFGPYGGSGGSANTLSNVKVIQINGSAGDYLDSLDIYYEQYGTGSSTHRKFGGSGGSPFSGSGLSSIAVRSGSYLDAIIIDGVHHGGSGGNLSPTFTFGSGEYISNMTIRSGDYIDNISFETNMGRRFGPYGGSGGSANTLSNVKVIQINGSAGDYLDSLDIYYEQYGTGSSTHRKFGGSGGSPFSGSGLSSIAVRSGSYLDAIIIDGVHHGGSGGNLSPTFTFGSGEYISNMTIRSGDYIDNISFETNMGRRFGPYGGSGGSANTLSNVKVIQINGSAGDYLDSLDIYYEQY

Columns and labels:
Env of HIV-1RF virus = Env of HIV-1RF virus (HIV-1 RF); assay: cell-based or functional assay
[1] = biological target: HIV-1 subtype B envelope PVO.4 (HIV-1 subtype B); assay: cell-based or functional assay
[2] = biological target: HIV-1 subtype B envelope QH0692.42 (HIV-1 subtype B); assay: cell-based or functional assay
[3] = biological target: HIV-1 subtype B envelope JR-FL (HIV-1 subtype B); assay: cell-based or functional assay
[4] = biological target: HIV-1 subtype B envelope CAAN5342.A2 (HIV-1 subtype B); assay: cell-based or functional assay
[5] = biological target: HIV-1 subtype C envelope Du156.12 (HIV-1 subtype C); assay: cell-based or functional assay
[6] = biological target: HIV-1 subtype C envelope Du179.14 (HIV-1 subtype C); assay: cell-based or functional assay
[7] = biological target: HIV-1 subtype C envelope COT6.15 (HIV-1 subtype C); assay: cell-based or functional assay
[8] = biological target: HIV-1 subtype C envelope DU151.2 (HIV-1 subtype C); assay: cell-based or functional assay
[9] = biological target: HIV-1 subtype C envelope CAP206.8 (HIV-1 subtype C); assay: cell-based or functional assay
[10] = biological target: HIV-1 subtype A envelope Q23.17 (HIV-1 subtype A); assay: cell-based or functional assay
[11] = biological target: HIV-1 subtype A envelope Q168.a2 (HIV-1 subtype A); assay: cell-based or functional assay
[12] = biological target: GRFT-resistant envelope Du179 GRFT c17 (R); assay: cell-based or functional assay
[13] = biological target: GRFT-resistant envelope Du156R18 (R); assay: cell-based or functional assay
[14] = biological target: HIV envelope glycoprotein gp120 (HIV); assay: ITC
[15] = biological target: HIV envelope glycoprotein gp120 (HIV); assay: ITC, 30 °C, tandemer (180 µM) titrated into gp120 (2.5 µM)
[16] = biological target: HIV envelope glycoprotein gp120 (HIV); assay: ITC, 30 °C, lectin titrated into gp120

Binder | Anti-HIV EC50 (XTT cytopathicity assay, HIV-1RF, CEM-SS cells) (Env of HIV-1RF virus) [pM] | IC50 (pseudovirus neutralization, JC53bl-13 cells) [1] [nM] | IC50 (pseudovirus neutralization, JC53bl-13 cells) [2] [nM] | IC50 (pseudovirus neutralization, JC53bl-13 cells) [3] [nM] | IC50 (pseudovirus neutralization, JC53bl-13 cells) [4] [nM] | IC50 (pseudovirus neutralization, JC53bl-13 cells) [5] [nM] | IC50 (pseudovirus neutralization, JC53bl-13 cells) [6] [nM] | IC50 (pseudovirus neutralization, JC53bl-13 cells) [7] [nM] | IC50 (pseudovirus neutralization, JC53bl-13 cells) [8] [nM] | IC50 (pseudovirus neutralization, JC53bl-13 cells) [9] [nM] | IC50 (pseudovirus neutralization, JC53bl-13 cells) [10] [nM] | IC50 (pseudovirus neutralization, JC53bl-13 cells) [11] [nM] | IC50 (pseudovirus neutralization, JC53bl-13 cells) [12] [nM] | fold reduction in activity between the WT (Du179.14) and R viruses [12] [fold] | IC50 (pseudovirus neutralization, JC53bl-13 cells) [13] [nM] | fold reduction in activity between the WT (Du156.12) and R viruses [13] [fold] | enthalpy/entropy compensation (ΔH/ΔS) ratio [14] | Kd [15] [nM] | TΔS [15] [kcal/mol] | ΔG [15] [kcal/mol] | other results
B1 | 1.2 | 0.185 | 0.17 | 0.287 | 0.232 | 0.0887 | 0.0934 | 0.273 | 0.3 | 0.164 | 0.276 | 0.273 | 2.08 | 22 | 0.688 | 8 | – | – | – | – | –
B2 | 2.7 | 0.301 | 0.202 | 2.09 | 5.27 | 0.0182 | 0.158 | 1.46 | 0.694 | 0.178 | 7.26 | 1.55 | 36 | 228 | 27.1 | 1490 | 1.16 | 5 | -59.9 | -11.6 | ΔH [15]: -69.6 kcal/mol
B3 | 119000 | – | – | – | – | – | – | – | – | – | – | – | – | – | – | – | – | – | – | – | Kd [16]: 112 nM; TΔS [16]: -26 kcal/mol; ΔG [16]: -9.47 kcal/mol; ΔH [16]: -35.5 kcal/mol
B4 | 2.6 | 0.558 | 0.513 | 5.77 | 16.9 | 0.0616 | 0.144 | 2.52 | 1.7 | 0.696 | 7.16 | 5.28 | 34.4 | 239 | 26 | 422 | 1.33 | 3 | -35.4 | -11.8 | ΔH [15]: -47.2 kcal/mol
B5 | 1 | 0.27 | 0.223 | 0.325 | 0.326 | 0.0794 | 0.124 | 0.412 | 0.308 | 0.181 | 0.462 | 0.331 | 3.86 | 31 | 1.11 | 14 | 1.19 | 3 | -62.7 | -11.8 | ΔH [15]: -74.4 kcal/mol
